Reference: patent US20200377587A1

Experiments:
IL-8 [1] = molecular target: IL-8 (UniProt P10145); assay: SPR, scFv, preliminary KD, lowest and highest value
IL-8 [2] = molecular target: IL-8 (UniProt P10145); assay: SPR, immobilized IL-8, scFv, 25 C
IL-8 [3] = molecular target: IL-8 (UniProt P10145); assay: cell-based or functional assay
IL-8 (77-mer) = IL-8 (77-mer) (UniProt P10145); assay: binding kinetics, FIG. 1B
IL-8 (72-mer) = IL-8 (72-mer) (UniProt P10145); assay: binding kinetics, FIG. 1B
Chain of IL-8 (72-mer) (P10145 28-99 limits assumed): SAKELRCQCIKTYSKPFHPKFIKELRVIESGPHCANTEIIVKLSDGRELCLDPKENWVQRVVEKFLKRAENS

Chain of IL-8 (P10145 28-99 limits assumed): as above
Chain of IL-8 (77-mer) (P10145 23-99 limits assumed): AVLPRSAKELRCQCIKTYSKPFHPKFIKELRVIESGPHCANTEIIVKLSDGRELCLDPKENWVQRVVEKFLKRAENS

Row | Kd (IL-8 [1]) [nM] | Kd (IL-8 [2]) [nM] | reduction of transmigration of neutrophils (IL-8 mediated neutrophil chemotaxis, transwell, 1 nM IL-8, 1.5 and 3 hours) (IL-8 [3]) [%] | Kd (IL-8 (77-mer)) [nM] | Kd (IL-8 (72-mer)) [nM] | Binder
1 | 0.009 to 0.048 | 0.009 to 0.048 | 30 to 70 | 0.12 | 0.147 | scFv 49-31 (scFv, part only; not given: linker and domain order, V domains shown, not shown: another chain or arm of the molecule; small tags and cut ends) VH: EVQLVESGGGLVQPGGSLRLSCAASGFTFSSYYMHWVRQAPGKGLEWVSAISGGGSSTYYADSVKGRFTISRDNSKNTLYLQMNSLRAEDTAVYYCARDLRIFEGRDAGFDVWGQGTLVTVS VL: DIQMTQSPSSLSASVGDRVTITCQASQDISNYLNWYQQKPGKAPKLLIYDASNLETGVPSRFSGSGSGTDFTFTISSLQPEDIATYYCQQDDDVPWTFGQGTKVEIK
2 |  | 2.66 |  |  |  | scFv 49-1 (scFv, part only; not given: linker and domain order, V domains shown, not shown: another chain or arm of the molecule; small tags and cut ends) VH: EVQLVESGGGLVQPGGSLRLSCAASGFTFSSYWMHWVRQAPGKGLEWVSAISWSGGSTSYADSVKGRFTISRDNSKNTLYLQMNSLRAEDTAVYYCARDLTWWVQAFDVWGQGTLVTVSS VL: DIQMTQSPSSLSASVGDRVTITCQASQDISNYLNWYQQKPGKAPKLLIYDASNLETGVPSRFSGSGSGTDFTFTISSLQPEDIATYYCQQVDDSPLTFGQGTKVEIK
